Results published in patent EP4696711A1 (Jiangsu Hengrui Pharmaceuticals Co., Ltd., dated 2024).
Blank lines part the entries; values can stand above or below the binder they belong to.

Target: T1, Cynomolgus MUC1 his (Cat. # MU1-C52H5, Acro) (cynomolgus)
T1 construct: His-tagged, bought; also called Cyno MUC1-His
Test: SPR (Biacore T200), antibody captured on Protein A

Kd: 18.9 nM
B1: M4-H1L1 (antibody, human IgG1, kappa)
heavy: not shown
light: DIQMTQSPSSLSASVGDRVTITCSASSSVFNMNWYQQKPGKSPKLWIYDISKLASGVPSRFSGSGSGTDFTLTISSLQPEDFATYYCQQRSFYPPTFGGGTKVEIKRTVAAPSVFIFPPSDEQLKSGTASVVCLLNNFYPREAKVQWKVDNALQSGNSQESVTEQDSKDSTYSLSSTLTLSKADYEKHKVYACEVTHQGLSSPVTKSFNRGEC
notes: humanized IgG1/kappa

Kd: 17.8 nM
B2: M4H1L1-ZalH4 (bispecific antibody, human IgG1, kappa)
heavy: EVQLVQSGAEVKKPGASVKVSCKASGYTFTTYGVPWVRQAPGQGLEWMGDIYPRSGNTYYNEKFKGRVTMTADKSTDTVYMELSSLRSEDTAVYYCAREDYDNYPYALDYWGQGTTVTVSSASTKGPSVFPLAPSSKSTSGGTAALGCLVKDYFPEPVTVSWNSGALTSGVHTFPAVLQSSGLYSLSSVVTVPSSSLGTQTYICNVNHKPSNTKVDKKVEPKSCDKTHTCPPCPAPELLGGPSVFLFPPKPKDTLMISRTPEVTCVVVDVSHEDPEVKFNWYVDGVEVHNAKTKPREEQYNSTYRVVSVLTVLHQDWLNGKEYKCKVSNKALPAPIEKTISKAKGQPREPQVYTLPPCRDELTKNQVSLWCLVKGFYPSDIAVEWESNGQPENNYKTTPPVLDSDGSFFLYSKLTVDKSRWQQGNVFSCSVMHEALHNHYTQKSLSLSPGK
light: B1 light
chain 1: not shown
chain 2: DIQLTQSPSSLSASVGDRVTITCRASQDISSALVWYQQKPGKAPKLLIYDASSLESGVPSRFSGSESGTDFTLTISSLQPEDFATYYCQQFNSYPLTFGGGTKVEIKGGGGSSGAPRFLTRPKASVVSVGKDATLSCQIVGNPFPQVSWEKDKQPVTAGVRFRLAQDGDLYRLKILDLQLSDSGQYVCRARNAHGEAFACLGLQVDAEA
